Substitutions are numbered along the chain they refer to.
B1: IC3B8 (bispecific antibody, human IgG4 S228P, kappa, lambda, F234A L235A)
heavy 1: EVQLVESGGGLVQPGGSLKLSCAASGFTFNTYAMNWVRQASGKGLEWVGRIRSKYNAYATYYAASVKGRFTISRDDSKNTAYLQMNSLKTEDTAVYYCTRHGNFGNSYVSWFAYWGQGTLVTVSSASTKGPSVFPLAPCSRSTSESTAALGCLVKDYFPEPVTVSWNSGALTSGVHTFPAVLQSSGLYSLSSVVTVPSSSLGTKTYTCNVDHKPSNTKVDKRVESKYGPPCPPCPAPEAAGGPSVFLFPPKPKDTLMISRTPEVTCVVVDVSQEDPEVQFNWYVDGVEVHNAKTKPREEQFNSTYRVVSVLTVLHQDWLNGKEYKCKVSNKGLPSSIEKTISKAKGQPREPQVYTLPPSQEEMTKNQVSLTCLVKGFYPSDIAVEWESNGQPENNYKTTPPVLDSDGSFLLYSKLTVDKSRWQEGNVFSCSVMHEALHNHYTQKSLSLSLGK
light 1: QAVVTQEPSLTVSPGGTVTLTCRSSTGAVTTSNYANWVQQKPGQAPRGLIGGTNKRAPGTPARFSGSLLGGKAALTLSGAQPEDEAEYYCALWYSNLWVFGGGTKLTVLGQPKAAPSVTLFPPSSEELQANKATLVCLISDFYPGAVTVAWKADSSPVKAGVETTTPSKQSNNKYAASSYLSLTPEQWKSHRSYSCQVTHEGSTVEKTVAPTECS
heavy 2: not shown
light 2: not shown
notes: IgG4-PAA, Fab arm exchange; also called IAPB23 x CD3B220
B2: IC3B13 (bispecific antibody, human IgG4 S228P, lambda, F234A L235A)
heavy 1: B1 heavy 1
light 1: B1 light 1
heavy 2: not shown
light 2: QSALTQPRSVSGSPGHSVTISCTGTSSDVGDYNYVSWYQQRPGKVPKLLIYDVSKRPSGVPDRFSGSKSGNTASLTISGLQAEDEAIYFCASYAGNYNVVFGGGTKLTVLGQPKAAPSVTLFPPSSEELQANKATLVCLISDFYPGAVTVAWKADSSPVKAGVETTTPSKQSNNKYAASSYLSLTPEQWKSHRSYSCQVTHEGSTVEKTVAPTECS
notes: IgG4-PAA, Fab arm exchange; also called IAPB63 x CD3B220
B3: IC3B3 (bispecific antibody, human IgG4 S228P, kappa, lambda, F234A L235A)
heavy 1: B1 heavy 1
light 1: B1 light 1
heavy 2: not shown
light 2: DIQLTQSPSFLSASVGDRVTITCRASQGISSYLAWYQQKPGKAPKLLIYAASTLQSGVPSRFSGSGSGTEFTLTISSLQPEDFATYYCQQVNSYPLTFGGGTKVEIKRTVAAPSVFIFPPSDEQLKSGTASVVCLLNNFYPREAKVQWKVDNALQSGNSQESVTEQDSKDSTYSLSSTLTLSKADYEKHKVYACEVTHQGLSSPVTKSFNRGEC
notes: IgG4-PAA, Fab arm exchange; also called IAPB57 x CD3B220
B4: IC3B6 (bispecific antibody, human IgG4 S228P, kappa, lambda, F234A L235A)
heavy 1: B1 heavy 1
light 1: B1 light 1
heavy 2: not shown
light 2: not shown
notes: IgG4-PAA, Fab arm exchange; also called IAPB3 x CD3B220
B5: IC3B15 (bispecific antibody, human IgG4 S228P, kappa, lambda, F234A L235A)
heavy 1: B1 heavy 1
light 1: B1 light 1
heavy 2: not shown
light 2: not shown
notes: IgG4-PAA, Fab arm exchange; also called IAPB65 x CD3B220
B6: IC3B12 (bispecific antibody, human IgG4 S228P, kappa, lambda, F234A L235A)
heavy 1: B1 heavy 1
light 1: B1 light 1
heavy 2: not shown
light 2: not shown
notes: IgG4-PAA, Fab arm exchange; also called IAPB55 x CD3B220
B7: IC3B14 (bispecific antibody, human IgG4 S228P, lambda, F234A L235A)
heavy 1: B1 heavy 1
light 1: B1 light 1
heavy 2: not shown
light 2: B2 light 2 with A91S
notes: IgG4-PAA, Fab arm exchange; also called IAPB64 x CD3B220
B8: IAPB55 (antibody, human IgG4 S228P, kappa, F234A L235A, V domains shown)
VH: QLQLQESGPGLVKPSETLSLTCTVSGVSISSSTYYWGWLRQPPGMGLEWTGSIYFTGNTYYNPSLKSRVTISVDTSRNQFSLKLSSVTAADTAVYYCGSLFGDYGYFDYWGQGTLVTVSS
VL: EIVMTQSPATLSVSPGERATLSCRASQFISSNLAWYQQKPGQAPRLLIYGASTRATGIPARFSGSGSGTDFTLTISSLQSEDFAVYYCQQYNNWPFTFGPGTKVDIKR
notes: IgG4-PAA; whole chains
B9: IAPB61 (antibody, human IgG4 S228P, kappa, F234A L235A, V domains shown)
VH: B8 VH
VL: B8 VL with S14P, F96S
notes: IgG4-PAA; whole chains

biological target: T1, recombinant human IL1RAP ECD (human, UniProt Q9NPH3 21-367); assay: SPR
T1 construct: His-tagged; also called hIL1RAP-ECD; rhuIL1RAP
T1 sequence: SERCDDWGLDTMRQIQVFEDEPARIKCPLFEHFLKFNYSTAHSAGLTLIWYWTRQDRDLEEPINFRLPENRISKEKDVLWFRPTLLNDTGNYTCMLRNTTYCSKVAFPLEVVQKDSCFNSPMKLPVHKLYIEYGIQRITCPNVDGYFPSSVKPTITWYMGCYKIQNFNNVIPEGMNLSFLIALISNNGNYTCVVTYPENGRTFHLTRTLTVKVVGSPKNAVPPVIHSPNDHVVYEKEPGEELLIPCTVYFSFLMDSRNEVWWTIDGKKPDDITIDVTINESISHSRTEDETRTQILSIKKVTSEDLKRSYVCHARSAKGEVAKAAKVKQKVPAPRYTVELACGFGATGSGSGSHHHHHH

| Kd [nM] | koff [s⁻¹] | kon [M⁻¹ s⁻¹] | Binder |
| --- | --- | --- | --- |
| 9.96 | 0.00298 | 300000 | B1 |
| 0.122 | 0.000114 | 938000 | B2 |
| 0.034 | 2.98e-05 | 875000 | B3 |
| 2.29 | 0.000381 | 167000 | B4 |
| 11.5 | 0.00395 | 343000 | B5 |
| 0.313 | 0.000361 | 1.15e+06 | B6 |
| 0.246 | 0.000171 | 695000 | B7 |

biological target: T2, recombinant cyno IL1RAP ECD (cynomolgus monkey, UniProt P59822 21-367 (rhesus entry)); assay: SPR
T2 construct: also called rcynoIL1RAP
T2 sequence: T1 sequence with L183F, T273P, K326T

| Kd [nM] | koff [s⁻¹] | kon [M⁻¹ s⁻¹] | Binder |
| --- | --- | --- | --- |
| 2.7 | 0.00121 | 448000 | B1 |
| 0.451 | 0.000532 | 1.18e+06 | B2 |
| 0.0861 | 8.2e-05 | 952000 | B3 |
| 2.99 | 0.00054 | 180000 | B4 |
| 9.08 | 0.00344 | 379000 | B5 |
| 0.218 | 0.000331 | 1.52e+06 | B6 |
| 0.993 | 0.000858 | 864000 | B7 |

biological target: T1, recombinant human IL1RAP ECD; assay: SPR; remark: another data set of the same source

| Kd [nM] | Binder |
| --- | --- |
| 9.96 | B1 |
| 0.122 | B2 |
| 0.034 | B3 |
| 2.29 | B4 |
| 11.5 | B5 |
| 0.313 | B6 |
| 0.246 | B7 |

biological target: T2, recombinant cyno IL1RAP ECD; assay: SPR; remark: another data set of the same source

| Kd [nM] | Binder |
| --- | --- |
| 2.7 | B1 |
| 0.451 | B2 |
| 0.0861 | B3 |
| 2.99 | B4 |
| 9.08 | B5 |
| 0.218 | B6 |
| 0.993 | B7 |

biological target: T1, recombinant human IL1RAP ECD; assay: SPR, summary

| Kd [nM] | Binder |
| --- | --- |
| 1.64 | B8 |
| 17.5 | B9 |

biological target: T1, recombinant human IL1RAP ECD; assay: SPR, summary; remark: another data set of the same source

| Kd [nM] | Binder |
| --- | --- |
| 9.96 | B1 |
| 0.122 | B2 |
| 0.034 | B3 |
| 2.29 | B4 |
| 11.5 | B5 |
| 0.313 | B6 |
| 0.246 | B7 |

biological target: T2, recombinant cyno IL1RAP ECD; assay: SPR, summary

| Kd [nM] | Binder |
| --- | --- |
| 2.7 | B1 |
| 0.451 | B2 |
| 0.086 | B3 |
| 2.99 | B4 |
| 9.08 | B5 |
| 0.218 | B6 |
| 0.993 | B7 |

biological target: T2, recombinant cyno IL1RAP ECD; assay: recombinant protein

| binding result | Binder |
| --- | --- |
| binds | B8 |
| binds | B9 |

biological target: T3, cyno IL1RAP ECD displayed on HEK-293F cells (pDisplay) (cynomolgus monkey, UniProt P59822 21-367 (rhesus entry)); assay: HEK-293F cells (MSD)
T3 sequence: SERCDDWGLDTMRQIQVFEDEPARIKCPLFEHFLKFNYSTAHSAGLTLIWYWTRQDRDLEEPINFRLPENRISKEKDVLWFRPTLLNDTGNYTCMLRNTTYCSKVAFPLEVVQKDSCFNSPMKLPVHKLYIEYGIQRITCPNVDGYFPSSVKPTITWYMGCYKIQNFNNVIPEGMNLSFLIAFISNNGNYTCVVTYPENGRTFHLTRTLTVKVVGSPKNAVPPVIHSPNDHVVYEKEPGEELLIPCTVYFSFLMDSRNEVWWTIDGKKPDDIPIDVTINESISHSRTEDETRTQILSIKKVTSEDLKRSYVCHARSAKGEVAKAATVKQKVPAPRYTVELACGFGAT

| binding result | Binder |
| --- | --- |
| binds | B8 |
| binds | B9 |

biological target: T4, human IL1RAP on cells (endogenous) (human, UniProt Q9NPH3 21-570); assay: cell-based or functional assay
T4 sequence (looked up): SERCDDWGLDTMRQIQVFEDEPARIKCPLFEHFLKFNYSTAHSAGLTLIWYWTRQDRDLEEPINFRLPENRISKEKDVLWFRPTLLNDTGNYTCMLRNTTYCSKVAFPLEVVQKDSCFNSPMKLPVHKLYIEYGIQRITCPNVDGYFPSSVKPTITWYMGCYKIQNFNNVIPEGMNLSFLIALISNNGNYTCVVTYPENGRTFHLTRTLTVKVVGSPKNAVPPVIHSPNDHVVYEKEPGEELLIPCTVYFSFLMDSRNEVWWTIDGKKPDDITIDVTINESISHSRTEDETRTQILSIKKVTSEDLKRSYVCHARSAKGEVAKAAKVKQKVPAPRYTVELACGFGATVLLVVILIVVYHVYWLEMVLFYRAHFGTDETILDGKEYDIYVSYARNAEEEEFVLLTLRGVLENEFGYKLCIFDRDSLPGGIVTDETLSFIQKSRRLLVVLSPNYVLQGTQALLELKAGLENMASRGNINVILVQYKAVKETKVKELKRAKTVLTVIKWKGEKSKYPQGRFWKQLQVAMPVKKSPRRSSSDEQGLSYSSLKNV

| Binder | EC50, T-cell mediated cytotoxicity [nM] |
| --- | --- |
| B1 | 0.138 |
| B2 | 0.054 |
| B3 | 0.131 |
| B4 | 0.49 |
| B5 | 0.94 |
| B6 | 1.3 |
| B7 | 0.1 |

biological target: T1, recombinant human IL1RAP ECD; assay: SPR; human KD over cyno KD

| Hu/Cyno KD Ratio | Binder |
| --- | --- |
| 3.7 | B1 |
| 0.3 | B2 |
| 0.4 | B3 |
| 0.8 | B4 |
| 1.3 | B5 |
| 1.4 | B6 |
| 0.2 | B7 |

From patent US20190270826A1 (Janssen / Centocor, published 2019)
